Key:
CHD4 PHD1/2 [1] = experiment: fluorescence polarization; conditions: 75 mM NaCl, apparent Kd, FP: 15 mM Tris pH 7.5, 75 mM NaCl, 0.00625% Tween20, 3 mM DTT, 5 nM NCP, FRET: 15 mM Tris pH 7.5, 1 mM EDTA, 0.00625% Tween20, 25 nM NCP, NMR: …
[2] = biological target: nucleosome (NCP) with fluorescein-labelled DNA, for fluorescence polarization (human); experiment: fluorescence polarisation; increasing amounts of CHD4 PHD1/2, PHD1 or PHD2 added to 5 nM nucleosomes with fluorescein-labelled DNA; 15 mM Tris pH 7.5, 75 mM NaCl, 0.00625% Tween20, 3 mM DTT; apparent
CHD4 PHD1/2 [3] = experiment: FRET (nucleosome unwrapping); conditions: 1.4 uM LexA present, FP: 15 mM Tris pH 7.5, 75 mM NaCl, 0.00625% Tween20, 3 mM DTT, 5 nM NCP, FRET: 15 mM Tris pH 7.5, 1 mM EDTA, 0.00625% Tween20, 25 nM NCP, NMR: …
LexA = experiment: FRET (nucleosome unwrapping); conditions: FP: 15 mM Tris pH 7.5, 75 mM NaCl, 0.00625% Tween20, 3 mM DTT, 5 nM NCP, FRET: 15 mM Tris pH 7.5, 1 mM EDTA, 0.00625% Tween20, 25 nM NCP, NMR: …

CHD4 PHD1/2 (aa 361–503), sequence (Q14839 361-503): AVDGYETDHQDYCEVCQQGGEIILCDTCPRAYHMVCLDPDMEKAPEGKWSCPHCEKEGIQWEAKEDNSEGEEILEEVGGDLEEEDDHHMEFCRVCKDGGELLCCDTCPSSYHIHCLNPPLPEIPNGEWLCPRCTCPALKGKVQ

Fluorescein-NCP, 601 L with LexA site
Kd (CHD4 PHD1/2 [1]): 630 nM

CHD4 PHD1/2 (aa 361–503) (from UniProt Q14839 361-503) (domain or fragment)
Kd [2]: 630 nM

Cy3-Cy5-NCP, 601 L with LexA site
K half (CHD4 PHD1/2 [3]): 32 µM
K half (LexA): 1400 nM

Reference: publication PMC5686127, “Accessibility of the histone H3 tail in the nucleosome for binding of paired readers” (Nature Communications, 2017)
